Results taken from US20150098945A1 (Daiichi Sankyo, published 2015).

Experiments:
[1] = target: T1, rat ROBO4 (pCI-raROBO4-transfected HEK293 cells) (rat, UniProt Q80W87 38-949 at identity 0.93)); test: flow cytometry (FC500), HEK293 cells transfected with pCI-raROBO4, FITC goat anti-human IgG Fc; control histogram IgG (human IgG)
T1 chain: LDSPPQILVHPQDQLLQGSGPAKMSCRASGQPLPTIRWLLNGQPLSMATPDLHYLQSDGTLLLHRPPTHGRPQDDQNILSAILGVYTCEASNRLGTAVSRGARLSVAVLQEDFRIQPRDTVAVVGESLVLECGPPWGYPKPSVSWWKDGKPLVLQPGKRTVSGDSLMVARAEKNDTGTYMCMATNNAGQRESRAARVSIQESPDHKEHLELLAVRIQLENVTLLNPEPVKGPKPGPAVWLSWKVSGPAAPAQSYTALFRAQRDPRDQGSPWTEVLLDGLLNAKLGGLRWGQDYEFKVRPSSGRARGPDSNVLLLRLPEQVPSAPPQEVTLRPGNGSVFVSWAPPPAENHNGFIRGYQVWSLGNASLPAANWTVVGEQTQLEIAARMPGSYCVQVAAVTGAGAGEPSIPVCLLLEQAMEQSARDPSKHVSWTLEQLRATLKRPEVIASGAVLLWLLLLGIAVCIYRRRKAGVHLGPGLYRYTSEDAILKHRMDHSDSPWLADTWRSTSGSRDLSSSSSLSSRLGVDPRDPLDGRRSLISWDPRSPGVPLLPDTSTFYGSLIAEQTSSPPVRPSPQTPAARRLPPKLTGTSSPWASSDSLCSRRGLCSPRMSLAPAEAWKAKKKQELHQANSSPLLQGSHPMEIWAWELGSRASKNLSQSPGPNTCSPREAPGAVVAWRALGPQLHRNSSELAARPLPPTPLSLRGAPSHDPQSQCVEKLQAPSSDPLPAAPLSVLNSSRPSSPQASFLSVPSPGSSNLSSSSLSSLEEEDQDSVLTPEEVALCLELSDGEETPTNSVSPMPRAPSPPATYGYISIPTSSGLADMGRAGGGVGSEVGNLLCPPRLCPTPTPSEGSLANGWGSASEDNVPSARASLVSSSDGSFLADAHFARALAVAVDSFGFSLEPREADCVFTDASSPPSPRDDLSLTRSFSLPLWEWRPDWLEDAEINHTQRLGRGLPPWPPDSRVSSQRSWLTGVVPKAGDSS

[2] = target: T2, N-terminal FLAG-tagged cynomolgus monkey ROBO4, cynoROBO4-2 (pCI-FLAG-cynoROBO4-2) (cynomolgus monkey, UniProt Q8WZ75 28-1007 (human entry)); test: flow cytometry, HEK293 cells transfected with pCI-FLAG-cynoROBO4-2, antibody at 10 µg/mL, anti-mouse IgG FITC; control histogram IgG (Mouse IgG2a)
T2 chain: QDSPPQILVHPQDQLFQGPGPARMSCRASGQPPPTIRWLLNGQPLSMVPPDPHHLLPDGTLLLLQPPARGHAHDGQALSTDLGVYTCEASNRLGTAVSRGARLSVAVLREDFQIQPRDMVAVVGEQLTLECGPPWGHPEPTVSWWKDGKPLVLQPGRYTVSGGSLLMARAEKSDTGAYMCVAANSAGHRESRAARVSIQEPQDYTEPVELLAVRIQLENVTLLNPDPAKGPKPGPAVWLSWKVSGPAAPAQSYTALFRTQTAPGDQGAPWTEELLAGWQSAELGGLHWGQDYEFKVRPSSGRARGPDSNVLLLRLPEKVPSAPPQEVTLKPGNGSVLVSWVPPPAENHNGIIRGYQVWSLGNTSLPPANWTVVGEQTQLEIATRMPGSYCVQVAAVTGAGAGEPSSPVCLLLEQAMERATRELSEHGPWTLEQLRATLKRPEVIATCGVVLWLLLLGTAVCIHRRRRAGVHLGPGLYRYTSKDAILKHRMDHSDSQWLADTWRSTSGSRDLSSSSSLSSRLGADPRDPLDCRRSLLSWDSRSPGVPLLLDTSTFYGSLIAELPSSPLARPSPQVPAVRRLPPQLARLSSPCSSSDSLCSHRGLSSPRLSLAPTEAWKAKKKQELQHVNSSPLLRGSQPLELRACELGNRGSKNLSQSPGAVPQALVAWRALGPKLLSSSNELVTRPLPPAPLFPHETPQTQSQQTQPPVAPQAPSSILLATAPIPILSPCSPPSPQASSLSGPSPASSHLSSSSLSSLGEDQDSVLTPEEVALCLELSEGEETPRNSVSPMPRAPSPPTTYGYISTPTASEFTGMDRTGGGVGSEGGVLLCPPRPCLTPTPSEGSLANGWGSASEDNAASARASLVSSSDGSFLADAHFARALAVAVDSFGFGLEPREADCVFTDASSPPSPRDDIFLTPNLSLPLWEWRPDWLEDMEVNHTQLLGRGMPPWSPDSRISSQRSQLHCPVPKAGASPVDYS
Procedure: HEK293 cells were inoculated at a concentration of 1.5×10⁶ cells/dish to a 60-mm dish (manufactured by Corning Inc.) and cultured overnight in a DMEM medium containing 10% FBS at 37° C. under 5% CO₂ conditions. On the next day, the HEK293 cells were transfected with pCI-hROBO4, pCI-mROBO4, pCI-raROBO4, pCI-FLAG-cynoROBO4-1, pCI-FLAG-cynoROBO4-2, pCI-hROBO1, pCI-hROBO2, or pCI-hROBO3 using FuGENE6 Transfection Reagent and further cultured overnight at 37° C. under 5% CO₂ conditions. On the next day, the expression vector-transfected cells were treated with TrypLE Express (manufactured by Life Technologies Corp.), washed with PBS containing 5% FBS, and then suspended in PBS containing 5% FBS. The obtained cell suspension was used in flow cytometry analysis.
Each cell suspension prepared in 4)-3-1 was centrifuged, and the supernatant was removed. Then, MAb1 or a negative control Mouse IgG2a was added at a concentration of 10 μg/mL to 2×10⁵ expression vector-transfected cells, and the resulting suspension was left standing at 4° C. for 1 hour. […] Data was analyzed using Flowjo. The histogram of FITC fluorescence intensity was prepared. The antibody was determined to bind in a cross-species manner when the histogram of MAb1 was shifted to a stronger fluorescence intensity region compared with the histogram of the negative control Mouse IgG2a.

B1: humanized MAb1 antibody H-1143 (antibody, human IgG2, kappa, V domains shown)
VH: EVQLVESGGGLVQPGGSLRLSCAASGFTFSTYAMSWVRQAPGKGLEWVATISQGGTYTYYPDSVKGRFTISRDNAKNTLYLQMNSLRAEDTAVYYCARLIYYDYLDYWGQGTLVTVSS
VL: DIVMTQSPLSLPVTLGEPASISCRSSQSLENENKNLYLNWYLQKPGQSPQLLIYRVSNRFSGVPDRFSGSGSGTDFTLKISRVEAEDVGVYYCLQVTHVPWTFGPGTKVDIKR
notes: Human IgG2 / kappa constant regions; also called hMAb1-H2-type heavy chain + hMAb1-L2-type light chain
Q: Does B1 bind [1]?
A: Result: no binding (tested: 10 µg/mL)

B2: anti-ROBO4 mouse monoclonal antibody MAb1 (antibody, mouse IgG1, V domains shown)
VH: EVQLVESGGGLVKPGGSLKLSCAASGFTFSTYAMSWVRQTPEKRLEWVATISNGGTYTYYPDSVKGRFTISRDNAENTLYLQMSSLRSEDTAMYFCARLIYYDYLDYWGHGTTLTVSS
VL: DAVMTQTPLSLPVSLGDQASISCRSSQSLENSNGNTYLNWYFQKPGQSPQLLIYRVSNRFSGVLDRFSGSGSGTDFTLKISRVEAEDFGVYFCLQVTHVPWTFGGGTKLEIKR
notes: Mouse IgG1 (gamma1), kappa light chain, purified from hybridoma supernatant; also called parent antibody MAb1
Q: Does B2 bind [2]?
A: Result: binds
